Measurements published in article PMC2173397.

Molecular target: T1, Apaf-1 (human (endogenous in HeLa)), O14727
T1 chain: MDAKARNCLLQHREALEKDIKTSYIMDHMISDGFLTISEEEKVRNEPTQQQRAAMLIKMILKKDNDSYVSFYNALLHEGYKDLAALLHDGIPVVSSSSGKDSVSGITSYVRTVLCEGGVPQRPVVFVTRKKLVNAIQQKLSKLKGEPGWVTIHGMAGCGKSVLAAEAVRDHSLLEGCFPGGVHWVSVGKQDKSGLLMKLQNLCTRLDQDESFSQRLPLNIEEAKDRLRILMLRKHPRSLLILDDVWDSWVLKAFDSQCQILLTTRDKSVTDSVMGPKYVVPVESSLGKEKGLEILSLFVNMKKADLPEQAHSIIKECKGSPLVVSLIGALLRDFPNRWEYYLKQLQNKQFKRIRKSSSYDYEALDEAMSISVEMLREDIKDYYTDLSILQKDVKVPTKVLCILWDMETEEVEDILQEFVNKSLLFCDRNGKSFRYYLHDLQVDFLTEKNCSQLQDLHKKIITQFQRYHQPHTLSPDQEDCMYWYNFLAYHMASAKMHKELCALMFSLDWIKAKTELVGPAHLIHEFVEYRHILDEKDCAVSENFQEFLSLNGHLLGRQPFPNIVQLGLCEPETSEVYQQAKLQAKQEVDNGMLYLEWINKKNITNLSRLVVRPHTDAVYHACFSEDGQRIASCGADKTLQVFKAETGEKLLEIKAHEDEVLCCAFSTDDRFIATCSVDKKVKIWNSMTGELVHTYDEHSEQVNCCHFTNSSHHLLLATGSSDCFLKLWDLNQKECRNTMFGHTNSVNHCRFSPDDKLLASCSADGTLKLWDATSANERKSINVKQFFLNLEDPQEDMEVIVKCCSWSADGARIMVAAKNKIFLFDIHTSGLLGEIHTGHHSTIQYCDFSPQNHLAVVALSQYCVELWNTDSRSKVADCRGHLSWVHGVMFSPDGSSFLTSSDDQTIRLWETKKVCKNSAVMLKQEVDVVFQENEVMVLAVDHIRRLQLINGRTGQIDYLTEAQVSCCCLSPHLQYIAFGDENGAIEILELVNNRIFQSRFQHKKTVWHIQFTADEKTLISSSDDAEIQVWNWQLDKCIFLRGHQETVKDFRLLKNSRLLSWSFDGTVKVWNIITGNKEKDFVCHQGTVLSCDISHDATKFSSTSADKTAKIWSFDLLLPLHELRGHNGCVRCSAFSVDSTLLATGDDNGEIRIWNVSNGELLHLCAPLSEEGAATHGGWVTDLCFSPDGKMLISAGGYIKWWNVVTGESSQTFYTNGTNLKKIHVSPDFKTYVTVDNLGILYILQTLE
Test: SEC
Settings: remark: other sources report otherwise

B1: caspase-9, P55211 1-416 (natural protein)
chain: MDEADRRLLRRCRLRLVEELQVDQLWDALLSRELFRPHMIEDIQRAGSGSRRDQARQLIIDLETRGSQALPLFISCLEDTGQDMLASFLRTNRQAAKLSKPTLENLTPVVLRPEIRKPEVLRPETPRPVDIGSGGFGDVGALESLRGNADLAYILSMEPCGHCLIINNVNFCRESGLRTRTGSNIDCEKLRRRFSSLHFMVEVKGDLTAKKMVLALLELAQQDHGALDCCVVVILSHGCQASHLQFPGAVYGTDGCPVSVEKIVNIFNGTSCPSLGGKPKLFFIQACGGEQKDHGFEVASTSPEDESPGSNPEPDATPFQEGLRTFDQLDAISSLPTPSDIFVSYSTFPGFVSWRDPKSGSWYVETLDDIFEQWAHSEDLQSLLLRVANAVSVKGIYKQMPGCFNFLRKKLFFKTS
B1 showed a percent recruited to the high Mr complex of 50%.
